Test results taken from US20180057553A1 (UNIVERSITY OF TOKYO, published 2018).

Assays:
[1] = biological target: T1, recombinant human TNF-alpha (Life Technologies) (human, UniProt P01375 77-233); test: SPR (Biacore), conjugate amine-coupled to chip, TNF-alpha as analyte
Text: (§1) Recombinant human TNF-alpha (Life Technologies) was used as TNF-alpha.

[2] = biological target: T1, recombinant human TNF-alpha (Life …); test: Biacore SPR: conjugate fixed to the sensor chip via an amino group, recombinant human TNF-alpha as analyte at 0.78-100 nM
Text: as §1

[3] = biological target: T1, recombinant human TNF-alpha (Life …); test: depletion assay: serially diluted conjugate mixed with human TNF-alpha (100% = 6.2 ng/mL), complex adsorbed on diol Sepharose beads, TNF-alpha remaining in the supernatant measured by ELISA; 2nd experiment
Method: (§2) The complex of TNF-alpha and the conjugate were then adsorbed using 3 microliters of diol Sepharose beads. Subsequently, TNF-alpha in the supernatant was measured by ELISA, and the percentage of the remaining TNF-alpha was calculated. Experiments were done twice, independently.

[4] = biological target: T1, recombinant human TNF-alpha (Life …); test: depletion assay: serially diluted conjugate mixed with human TNF-alpha (100% = 6.2 ng/mL), complex adsorbed on diol Sepharose beads, TNF-alpha remaining in the supernatant measured by ELISA; 1st experiment
Method: as §2

T1 sequence (P01375 77-233 limits assumed): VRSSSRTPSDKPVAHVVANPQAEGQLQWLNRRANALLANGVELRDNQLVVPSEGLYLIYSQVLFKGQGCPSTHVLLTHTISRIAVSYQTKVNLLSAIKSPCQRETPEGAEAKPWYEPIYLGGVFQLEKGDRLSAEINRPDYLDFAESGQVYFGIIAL

B1: conjugate of the extracellular region of human TNF receptor 2 (TNFR2) and mutant recombinant human intelectin-1 (S165A) (receptor)
chain: LPAQVAFTPYAPEPGSTCRLREYYDQTAQMCCSKCSPGQHAKVFCTKTSDTVCDSCEDSTYTQLWNWVPECLSCGSRCSSDQVETQACTREQNRICTCRPGWYCALSKQEGCRLCAPLRKCRPGFGVARPGTETSDVVCKPCAPGTFSNTTSSTDICRPHQICNVVAIPGNASMDAVCTSTSPTRSMAPGAVHLPQPVSTRSQHTQPTPEPSTAPSTSFLLPMGPSPPAEGSTGDGTDEANTYFKEWTCSSSPSLPRSCKEIKDECPSAFDGLYFLRTENGVIYQTFCDMTSGGGGWTLVASVHENDMRGKCTVGDRWSSQQGSKADYPEGDGNWANYNTFGSAEAATSDDYKNPGYYDIQAKDLGIWHVPNKSPMQHWRNSALLRYRTDTGFLQTLGHNLFGIYQKYPVKYGEGKCWTDNGPVIPVVYDFGDAQKTASYYSPYGQREFTAGFVQFRVFNNERAANALCAGMRVTGCNTEHHCIGGGGYFPEASPQQCGDFSGFDWSGYGTHVGYSSSREITEAAVLLFYR
notes: also called conjugate of TNFR2 and intelectin
Kd [1]: 0.468 nM
kon [1]: 1.14e+06 M⁻¹ s⁻¹
koff [2]: 0.000536 s⁻¹
EC50 (read off the curve) [3]: ~0.3 µg/mL
EC50 (read off the curve) [4]: ~0.3 µg/mL
